Data reported in US8129149B1, “Rapid and sensitive method to measure endonuclease activity” (The United States of America as represented by the …, priority 2008, dated 2012).

Molecular target: T1, Recombinant APE1 (Homo sapiens, UniProt P27695)
T1 construct: purchased NEW ENGLAND BIOLABS
Assay: APE activity assay: APE cleavage of the substrate oligonucleotide, detected by Taq polymerase extension and real-time PCR
Assay type: biochemical
Settings: well A04; Substrate DNA and Template DNA with APE
Procedure: Recombinant APE1 at 10,000 units/ml in 50% glycerol was purchased from NEW ENGLAND BIOLABS. One unit is defined as the amount of enzyme required to hydrolyze 20 pmol of a 34 bp oligonucleotide duplex containing a single AP site in a 10 ul reaction volume over one hour at 37° C. The reaction buffer consisted of 50 mM potassium acetate, 20 mM Tris-acetate, 10 mM magnesium acetate (pH 7.9) and 1 mM dithiothreitol.
All oligonucleotides, primers and probes were purchased from GENE LINK, INC. (Hawthorne, N.Y.). The two oligonucleotides that are specific to this technique, are designated the substrate and the template. The oligonucleotide with sequence 5′-GGGGTTTTGGGTTTTTTTAATTTTAGGTTGTGGTTGTGGTTGTCGGXGACGTGTTGGTTTTT/3ddC/3′ (SEQ. ID No. 1) serving as the substrate for APE contains the tetrahydrofuran, an abasic analog (X), and a 3′ dideoxy-C to prevent extension by DNA polymerase. […]
Real-time PCR was performed using a BIO-RAD LABORATORIES (Hercules, Calif.) ICYCLER using BIO-RAD LABORATORIES IQTM SUPERMIX. Cycle times were an initial step at 95° C. for 10 minutes followed by an amplification program of 50 cycles of 3 seconds at 95° C., 5 seconds at 61° C., and 20 seconds at 72° C. with fluorescence acquisition in relative florescent units at the end of each extension. […]

T1 sequence (P27695 whole entry): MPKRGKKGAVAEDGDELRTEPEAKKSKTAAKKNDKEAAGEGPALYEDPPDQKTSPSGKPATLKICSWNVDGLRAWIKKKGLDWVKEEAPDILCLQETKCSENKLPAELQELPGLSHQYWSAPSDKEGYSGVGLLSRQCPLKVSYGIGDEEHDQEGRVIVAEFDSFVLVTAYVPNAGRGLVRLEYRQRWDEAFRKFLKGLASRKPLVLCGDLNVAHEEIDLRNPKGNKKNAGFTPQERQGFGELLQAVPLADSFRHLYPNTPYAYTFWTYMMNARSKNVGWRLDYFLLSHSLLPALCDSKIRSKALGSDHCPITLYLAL

B1: 5′-GGGGTTTTGGGTTTTTTTAATTTTAGGTTGTGGTTGTGGTTGTCGGXGACGTGTTGGTTTTT/3ddC/3′ (nucleic acid)
chain: GGGGTTTTGGGTTTTTTTAATTTTAGGTTGTGGTTGTGGTTGTCGGGACGTGTTGGTTTTT
modifications: tetrahydrofuran abasic site; 3' dideoxy-C; SITE (46)...(47) Tetrahydrofuran is used to modify site 46 and 47. Serves as substrate for APE. Substrate is a commercial product. The 3′ end is modified by 3ddc/3′ to prevent extension by DNA polymerase.Chemically Synthesized
notes: substrate for APE; contains the tetrahydrofuran, an abasic analog (X), and a 3′ dideoxy-C to prevent extension by DNA polymerase
  CT of real-time PCR amplification: 26.3
